Source: publication PMC7566476, “MYB61 is regulated by GRF4 and promotes nitrogen utilization and biomass production in rice”

T1: GST-GRF4 (UniProt Q6ZIK5)
T1 sequence: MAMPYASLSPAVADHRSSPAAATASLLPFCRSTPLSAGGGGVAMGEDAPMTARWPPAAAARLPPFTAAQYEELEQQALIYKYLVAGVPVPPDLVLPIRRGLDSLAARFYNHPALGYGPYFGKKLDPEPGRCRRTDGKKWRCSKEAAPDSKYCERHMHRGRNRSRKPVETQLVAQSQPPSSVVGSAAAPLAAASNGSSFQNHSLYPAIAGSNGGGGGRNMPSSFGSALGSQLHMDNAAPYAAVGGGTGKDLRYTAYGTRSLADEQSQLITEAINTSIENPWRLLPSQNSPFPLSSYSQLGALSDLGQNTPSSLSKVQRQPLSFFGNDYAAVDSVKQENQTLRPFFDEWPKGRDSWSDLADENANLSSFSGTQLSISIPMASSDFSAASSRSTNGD

T2: GST-GRF4 (UniProt Q6ZIK5 1-394)
T2 sequence: T1 sequence

B1: MYB61 promoter motif 2 probe (within P8) (dsDNA)
DNA 1: CAAAAAGGCTGCGGTAATTAAGTCACAGTA
DNA 2: TACTGTGACTTAATTACCGCAGCCTTTTTG

Assays:
GST-GRF4 [1] = biological target: T1, GST-GRF4; assay: EMSA; details: EMSA binding buffer (Beyotime; composition, salt and pH not given), 4 °C; unlabeled competitor 50-, 100- and 500-fold
GST-GRF4 [2] = biological target: T2, GST-GRF4; assay: EMSA; EMSA binding buffer (Beyotime; composition, salt and pH not given), 4 °C; unlabeled competitor 50-, 100- and 500-fold; details: protein: recombinant; tags: N-terminal GST (pGEX-6P-1); label: biotin; blunt

Molecule | binding (GST-GRF4 [1]) | binding result (GST-GRF4 [2])
AATCTGTGCTCCAATCCAAGAAGATCATCTCTGGCACCTCTCAAGATGCTAAGCAATCAGCTGTGAGAACCAGGCCTATGCTGATGATTGCTTTTGCAGAGTTACAAACAGCATGATTTCCTCACTGGCCGTATTCTCGCTCAGAAGCAAATCCCAAT (double strand) [MYB61 promoter P1 fragment] | no binding | 
B1 |  | binds
